{"source": "paper PMC12612446", "origin": "cited, not measured here", "target": "HER2 (Homo sapiens) (UniProt P04626)"}
{"substance": "trastuzumab", "values": [{"measurement": "Kd", "value": 0.58, "unit": "nM"}]}
